Laboratory results reported in US20160272683A1 (Novo Nordisk, published 2016).
Numbered stars: 1 amine (or outer) side, 2 acyl side, 3 side chain; on linkers, the order of the positions; unused ones are H or OH. * marks the point of attachment. C20 diacid = O=C(O)CCCCCCCCCCCCCCCCCCC(=O)*; γGlu = O=C(O)[C@H](CCC(=O)[*:2])N[*:1]

T1: human calcitonin receptor (human, UniProt P30988 25-474)
T1 sequence (looked up): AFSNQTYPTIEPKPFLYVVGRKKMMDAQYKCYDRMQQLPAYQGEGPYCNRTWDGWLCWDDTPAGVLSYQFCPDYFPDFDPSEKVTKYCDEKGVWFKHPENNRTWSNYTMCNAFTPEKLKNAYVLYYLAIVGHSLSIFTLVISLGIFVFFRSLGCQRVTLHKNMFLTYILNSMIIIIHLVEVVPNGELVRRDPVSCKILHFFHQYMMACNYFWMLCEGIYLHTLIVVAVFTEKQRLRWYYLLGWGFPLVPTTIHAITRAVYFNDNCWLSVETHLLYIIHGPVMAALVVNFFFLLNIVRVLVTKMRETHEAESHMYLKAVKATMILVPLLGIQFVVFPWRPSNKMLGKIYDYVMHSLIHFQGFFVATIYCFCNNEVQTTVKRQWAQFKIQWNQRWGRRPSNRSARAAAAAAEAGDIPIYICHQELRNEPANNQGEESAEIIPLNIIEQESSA

T2: human amylin 3(a) receptor (human calcitonin receptor co-expressed with RAMP-3) (human, UniProt P30988 25-474; O60896 24-148, limits assumed)
T2 sequence (looked up) 1: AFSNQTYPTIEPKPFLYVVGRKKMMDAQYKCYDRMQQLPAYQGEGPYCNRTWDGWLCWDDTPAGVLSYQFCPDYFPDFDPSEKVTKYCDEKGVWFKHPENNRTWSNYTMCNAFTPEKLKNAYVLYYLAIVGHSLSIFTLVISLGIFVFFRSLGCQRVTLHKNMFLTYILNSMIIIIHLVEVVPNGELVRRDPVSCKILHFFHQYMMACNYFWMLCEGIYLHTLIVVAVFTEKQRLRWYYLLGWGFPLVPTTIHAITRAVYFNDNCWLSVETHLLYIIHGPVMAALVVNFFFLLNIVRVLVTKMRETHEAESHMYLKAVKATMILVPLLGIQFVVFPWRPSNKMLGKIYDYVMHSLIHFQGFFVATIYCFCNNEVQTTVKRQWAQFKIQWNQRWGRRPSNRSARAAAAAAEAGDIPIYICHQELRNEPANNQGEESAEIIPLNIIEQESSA
T2 sequence (looked up) 2: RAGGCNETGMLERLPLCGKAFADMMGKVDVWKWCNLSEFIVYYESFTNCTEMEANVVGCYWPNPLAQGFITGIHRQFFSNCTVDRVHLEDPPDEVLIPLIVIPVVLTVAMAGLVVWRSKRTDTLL


Tests used:
[1] = biological target: T1, human calcitonin receptor; assay: cell-based or functional assay
[2] = biological target: T2, human amylin 3(a) receptor (human …); assay: cell-based or functional assay

hCTR funct. EC50 (pM) [1] [pM]	hAmylin-R funct. EC50 (pM) [2] [pM]	Binder
60	76	{C20 diacid-γGlu}-ASELSTAVLGRLSQELHELQTYPRTETGSGTY-NH2 (SMILES CC(C)C[C@H](NC(=O)[C@H](CCCNC(=N)N)NC(=O)CNC(=O)[C@H](CC(C)C)NC(=O)[C@@H](NC(=O)[C@H](C)NC(=O)[C@@H](NC(=O)[C@H](CO)NC(=O)[C@H](CC(C)C)NC(=O)[C@H](CCC(=O)O)NC(=O)[C@H](CO)NC(=O)[C@H](C)NC(=O)CC[C@H](NC(=O)CCCCCCCCCCCCCCCCCCC(=O)O)C(=O)O)[C@@H](C)O)C(C)C)C(=O)N[C@@H](CO)C(=O)N[C@@H](CCC(N)=O)C(=O)N[C@@H](CCC(=O)O)C(=O)N[C@@H](CC(C)C)C(=O)N[C@@H](Cc1c[nH]cn1)C(=O)N[C@@H](CCC(=O)O)C(=O)N[C@@H](CC(C)C)C(=O)N[C@@H](CCC(N)=O)C(=O)N[C@H](C(=O)N[C@@H](Cc1ccc(O)cc1)C(=O)N1CCC[C@H]1C(=O)N[C@@H](CCCNC(=N)N)C(=O)N[C@H](C(=O)N[C@@H](CCC(=O)O)C(=O)N[C@H](C(=O)NCC(=O)N[C@@H](CO)C(=O)NCC(=O)N[C@H](C(=O)N[C@@H](Cc1ccc(O)cc1)C(N)=O)[C@@H](C)O)[C@@H](C)O)[C@@H](C)O)[C@@H](C)O) [[N-terminal(C20 diacid-gGlu), des1, 9V, 15Q, 21Q, 23Y, 30S, 31G, 32T, 33Y]mimylin]
21	36	{C20 diacid-γGlu}-ASGLSTAALGRLSEELHELQTYPRTETGSGTY-NH2 (SMILES CC(C)C[C@H](NC(=O)CNC(=O)[C@H](CO)NC(=O)[C@H](C)NC(=O)CC[C@H](NC(=O)CCCCCCCCCCCCCCCCCCC(=O)O)C(=O)O)C(=O)N[C@@H](CO)C(=O)N[C@H](C(=O)N[C@@H](C)C(=O)N[C@@H](C)C(=O)N[C@@H](CC(C)C)C(=O)NCC(=O)N[C@@H](CCCNC(=N)N)C(=O)N[C@@H](CC(C)C)C(=O)N[C@@H](CO)C(=O)N[C@@H](CCC(=O)O)C(=O)N[C@@H](CCC(=O)O)C(=O)N[C@@H](CC(C)C)C(=O)N[C@@H](Cc1c[nH]cn1)C(=O)N[C@@H](CCC(=O)O)C(=O)N[C@@H](CC(C)C)C(=O)N[C@@H](CCC(N)=O)C(=O)N[C@H](C(=O)N[C@@H](Cc1ccc(O)cc1)C(=O)N1CCC[C@H]1C(=O)N[C@@H](CCCNC(=N)N)C(=O)N[C@H](C(=O)N[C@@H](CCC(=O)O)C(=O)N[C@H](C(=O)NCC(=O)N[C@@H](CO)C(=O)NCC(=O)N[C@H](C(=O)N[C@@H](Cc1ccc(O)cc1)C(N)=O)[C@@H](C)O)[C@@H](C)O)[C@@H](C)O)[C@@H](C)O)[C@@H](C)O) [[N-terminal(C20 diacid-gGlu), des1, 4G, 15E, 21Q, 23Y, 30S, 31G, 32T, 33Y]mimylin]
25	37	{C20 diacid-γGlu}-ASGLSTAALGRLSQELHELQTYPRTETGSQTY-NH2 (SMILES CC(C)C[C@H](NC(=O)CNC(=O)[C@H](CO)NC(=O)[C@H](C)NC(=O)CC[C@H](NC(=O)CCCCCCCCCCCCCCCCCCC(=O)O)C(=O)O)C(=O)N[C@@H](CO)C(=O)N[C@H](C(=O)N[C@@H](C)C(=O)N[C@@H](C)C(=O)N[C@@H](CC(C)C)C(=O)NCC(=O)N[C@@H](CCCNC(=N)N)C(=O)N[C@@H](CC(C)C)C(=O)N[C@@H](CO)C(=O)N[C@@H](CCC(N)=O)C(=O)N[C@@H](CCC(=O)O)C(=O)N[C@@H](CC(C)C)C(=O)N[C@@H](Cc1c[nH]cn1)C(=O)N[C@@H](CCC(=O)O)C(=O)N[C@@H](CC(C)C)C(=O)N[C@@H](CCC(N)=O)C(=O)N[C@H](C(=O)N[C@@H](Cc1ccc(O)cc1)C(=O)N1CCC[C@H]1C(=O)N[C@@H](CCCNC(=N)N)C(=O)N[C@H](C(=O)N[C@@H](CCC(=O)O)C(=O)N[C@H](C(=O)NCC(=O)N[C@@H](CO)C(=O)N[C@@H](CCC(N)=O)C(=O)N[C@H](C(=O)N[C@@H](Cc1ccc(O)cc1)C(N)=O)[C@@H](C)O)[C@@H](C)O)[C@@H](C)O)[C@@H](C)O)[C@@H](C)O) [[N-terminal(C20 diacid-gGlu), des1, 4G, 15Q, 21Q, 23Y, 30S, 31Q, 32T, 33Y]mimylin]
56	66	{C20 diacid-γGlu}-EASQLSTAVLGRLSQELHELQTYPRTGTGSGTY-NH2 (SMILES CC(C)C[C@H](NC(=O)[C@H](CCCNC(=N)N)NC(=O)CNC(=O)[C@H](CC(C)C)NC(=O)[C@@H](NC(=O)[C@H](C)NC(=O)[C@@H](NC(=O)[C@H](CO)NC(=O)[C@H](CC(C)C)NC(=O)[C@H](CCC(N)=O)NC(=O)[C@H](CO)NC(=O)[C@H](C)NC(=O)[C@H](CCC(=O)O)NC(=O)CC[C@H](NC(=O)CCCCCCCCCCCCCCCCCCC(=O)O)C(=O)O)[C@@H](C)O)C(C)C)C(=O)N[C@@H](CO)C(=O)N[C@@H](CCC(N)=O)C(=O)N[C@@H](CCC(=O)O)C(=O)N[C@@H](CC(C)C)C(=O)N[C@@H](Cc1c[nH]cn1)C(=O)N[C@@H](CCC(=O)O)C(=O)N[C@@H](CC(C)C)C(=O)N[C@@H](CCC(N)=O)C(=O)N[C@H](C(=O)N[C@@H](Cc1ccc(O)cc1)C(=O)N1CCC[C@H]1C(=O)N[C@@H](CCCNC(=N)N)C(=O)N[C@H](C(=O)NCC(=O)N[C@H](C(=O)NCC(=O)N[C@@H](CO)C(=O)NCC(=O)N[C@H](C(=O)N[C@@H](Cc1ccc(O)cc1)C(N)=O)[C@@H](C)O)[C@@H](C)O)[C@@H](C)O)[C@@H](C)O) [[N-terminal(C20 diacid-gGlu), 4Q, 9V, 15Q, 21Q, 23Y, 27G, 30S, 31G, 32T, 33Y]mimylin]
24	22	{C20 diacid}-ASGLSTAALGRLSQELHELQTYPRTETGSGTY-NH2 (SMILES CC(C)C[C@H](NC(=O)CNC(=O)[C@H](CO)NC(=O)[C@H](C)NC(=O)CCCCCCCCCCCCCCCCCCC(=O)O)C(=O)N[C@@H](CO)C(=O)N[C@H](C(=O)N[C@@H](C)C(=O)N[C@@H](C)C(=O)N[C@@H](CC(C)C)C(=O)NCC(=O)N[C@@H](CCCNC(=N)N)C(=O)N[C@@H](CC(C)C)C(=O)N[C@@H](CO)C(=O)N[C@@H](CCC(N)=O)C(=O)N[C@@H](CCC(=O)O)C(=O)N[C@@H](CC(C)C)C(=O)N[C@@H](Cc1c[nH]cn1)C(=O)N[C@@H](CCC(=O)O)C(=O)N[C@@H](CC(C)C)C(=O)N[C@@H](CCC(N)=O)C(=O)N[C@H](C(=O)N[C@@H](Cc1ccc(O)cc1)C(=O)N1CCC[C@H]1C(=O)N[C@@H](CCCNC(=N)N)C(=O)N[C@H](C(=O)N[C@@H](CCC(=O)O)C(=O)N[C@H](C(=O)NCC(=O)N[C@@H](CO)C(=O)NCC(=O)N[C@H](C(=O)N[C@@H](Cc1ccc(O)cc1)C(N)=O)[C@@H](C)O)[C@@H](C)O)[C@@H](C)O)[C@@H](C)O)[C@@H](C)O) [[N-terminal(C20 diacid), des1, 4G, 15Q, 21Q, 23Y, 30S, 31G, 32T, 33Y]mimylin]
18	54	{C20 diacid-γGlu}-ASGLSTAALGRLSTELHELETYPRTETGSGTY-NH2 (SMILES CC(C)C[C@H](NC(=O)CNC(=O)[C@H](CO)NC(=O)[C@H](C)NC(=O)CC[C@H](NC(=O)CCCCCCCCCCCCCCCCCCC(=O)O)C(=O)O)C(=O)N[C@@H](CO)C(=O)N[C@H](C(=O)N[C@@H](C)C(=O)N[C@@H](C)C(=O)N[C@@H](CC(C)C)C(=O)NCC(=O)N[C@@H](CCCNC(=N)N)C(=O)N[C@@H](CC(C)C)C(=O)N[C@@H](CO)C(=O)N[C@H](C(=O)N[C@@H](CCC(=O)O)C(=O)N[C@@H](CC(C)C)C(=O)N[C@@H](Cc1c[nH]cn1)C(=O)N[C@@H](CCC(=O)O)C(=O)N[C@@H](CC(C)C)C(=O)N[C@@H](CCC(=O)O)C(=O)N[C@H](C(=O)N[C@@H](Cc1ccc(O)cc1)C(=O)N1CCC[C@H]1C(=O)N[C@@H](CCCNC(=N)N)C(=O)N[C@H](C(=O)N[C@@H](CCC(=O)O)C(=O)N[C@H](C(=O)NCC(=O)N[C@@H](CO)C(=O)NCC(=O)N[C@H](C(=O)N[C@@H](Cc1ccc(O)cc1)C(N)=O)[C@@H](C)O)[C@@H](C)O)[C@@H](C)O)[C@@H](C)O)[C@@H](C)O)[C@@H](C)O) [[N-terminal(C20 diacid-gGlu), des1, 4G, 15T, 21E, 23Y, 30S, 31G, 32T, 33Y]mimylin]
63	62	{C20 diacid-γGlu}-ASQLSTAVLGRLSQELHELQTYPRTETGSQTY-NH2 (SMILES CC(C)C[C@H](NC(=O)[C@H](CCCNC(=N)N)NC(=O)CNC(=O)[C@H](CC(C)C)NC(=O)[C@@H](NC(=O)[C@H](C)NC(=O)[C@@H](NC(=O)[C@H](CO)NC(=O)[C@H](CC(C)C)NC(=O)[C@H](CCC(N)=O)NC(=O)[C@H](CO)NC(=O)[C@H](C)NC(=O)CC[C@H](NC(=O)CCCCCCCCCCCCCCCCCCC(=O)O)C(=O)O)[C@@H](C)O)C(C)C)C(=O)N[C@@H](CO)C(=O)N[C@@H](CCC(N)=O)C(=O)N[C@@H](CCC(=O)O)C(=O)N[C@@H](CC(C)C)C(=O)N[C@@H](Cc1c[nH]cn1)C(=O)N[C@@H](CCC(=O)O)C(=O)N[C@@H](CC(C)C)C(=O)N[C@@H](CCC(N)=O)C(=O)N[C@H](C(=O)N[C@@H](Cc1ccc(O)cc1)C(=O)N1CCC[C@H]1C(=O)N[C@@H](CCCNC(=N)N)C(=O)N[C@H](C(=O)N[C@@H](CCC(=O)O)C(=O)N[C@H](C(=O)NCC(=O)N[C@@H](CO)C(=O)N[C@@H](CCC(N)=O)C(=O)N[C@H](C(=O)N[C@@H](Cc1ccc(O)cc1)C(N)=O)[C@@H](C)O)[C@@H](C)O)[C@@H](C)O)[C@@H](C)O) [[N-terminal(C20 diacid-gGlu), des1, 4Q, 9V, 15Q, 21Q, 23Y, 30S, 31Q, 32T, 33Y]mimylin]
